{
  "source": "paper PMC12584684",
  "about": "“A minimal SufB2C2 complex functions as a [4Fe-4S] cluster scaffold in methanogenic archaea” (Microbiology Spectrum, 2025)",
  "key": {"[1]": {"system": "T1, MTH SufB2C2", "T1 construct": "gene sufC; N-terminal His6-SufC co-expressed with untagged SufB in E. coli Rosetta 2(DE3); SufB2C2 heterotetramer, ~156 kDa by SEC; with Fe-S cluster assembly protein SufB", "assay": "malachite green Pi release ATPase assay", "format": "biochemical, Methanothermococcus thermolithotrophicus", "conditions": "60°C, pH 7.5, 5 mM MgCl2, 0-2 mM ATP, holo-form, anoxic", "description": "malachite green Pi release ATPase assay on MTH SufB2C2 | kinetic parameters (Vmax, Km, kcat, and catalytic efficiency) for holo-forms of MTH SufC and SufB2C2"}, "[2]": {"system": "T2, MTH SufC", "T2 construct": "pET15b N-terminal His6-tag, E. coli Rosetta 2(DE3), anoxic Ni-NTA; monomer 30 kDa, dimer by SEC", "assay": "malachite green Pi release ATPase assay", "format": "biochemical, Methanothermococcus thermolithotrophicus", "conditions": "60°C, pH 7.5, 5 mM MgCl2, 0-2 mM ATP, holo-form, anoxic", "description": "malachite green Pi release ATPase assay on MTH SufC | kinetic parameters (Vmax, Km, kcat, and catalytic efficiency) for holo-forms of MTH SufC and SufB2C2"}, "[3]": {"molecular_target": "T3, MMP SufB2C2 (Methanococcus maripaludis, UniProt Q6LY25)", "T3 construct": "gene MMP1168; sufCB operon, N-terminal Strep-tag on SufC, expressed in M. maripaludis S0001 and purified anoxically; SufB2C2 heterotetramer; with Fe-S cluster assembly protein SufB", "T3 sequence (Q6LY25 1-248)": "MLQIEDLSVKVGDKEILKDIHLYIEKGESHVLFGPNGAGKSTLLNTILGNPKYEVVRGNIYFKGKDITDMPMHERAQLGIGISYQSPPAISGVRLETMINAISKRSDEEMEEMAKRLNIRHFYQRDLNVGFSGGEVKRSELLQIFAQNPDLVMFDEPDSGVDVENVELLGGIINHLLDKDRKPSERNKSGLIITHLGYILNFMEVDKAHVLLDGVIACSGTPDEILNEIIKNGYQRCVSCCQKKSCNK", "T3 sequence (Q6LY24 1-418 partner)": "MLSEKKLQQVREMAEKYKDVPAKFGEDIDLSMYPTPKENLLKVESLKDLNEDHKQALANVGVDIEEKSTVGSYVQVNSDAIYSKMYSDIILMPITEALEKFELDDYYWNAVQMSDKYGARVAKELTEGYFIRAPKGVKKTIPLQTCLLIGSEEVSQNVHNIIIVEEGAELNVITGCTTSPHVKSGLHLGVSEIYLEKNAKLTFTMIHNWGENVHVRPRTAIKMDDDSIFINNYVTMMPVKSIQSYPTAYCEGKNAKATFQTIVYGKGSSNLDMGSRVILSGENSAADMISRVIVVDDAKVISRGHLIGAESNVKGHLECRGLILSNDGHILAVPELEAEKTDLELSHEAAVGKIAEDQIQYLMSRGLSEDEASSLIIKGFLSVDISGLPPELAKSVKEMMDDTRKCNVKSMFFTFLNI", "assay": "iron quantification, UV-visible and EPR spectroscopy, as purified", "format": "binding", "conditions": "anoxic purification from native host; EPR at 10 K after 5 mM dithionite"}, "[4]": {"molecular_target": "His6-tagged Methanothermococcus thermolithotrophicus SufB (Methanothermococcus thermolithotrophicus)", "assay": "SEC; Superdex 200 10/300 GL, 50 mM sodium HEPES, 200 mM NaCl, 5 mM MgCl2, pH 7.5; samples pretreated with 10 mM EDTA and 10 mM DTH overnight; calibrated with standards of 29-700 kDa; fractions on SDS-PAGE"}, "[5]": {"molecular_target": "His6-tagged Methanothermococcus thermolithotrophicus SufC (Methanothermococcus thermolithotrophicus)", "assay": "SEC; Superdex 200 10/300 GL, 50 mM sodium HEPES, 200 mM NaCl, 5 mM MgCl2, pH 7.5; samples pretreated with 10 mM EDTA and 10 mM DTH overnight; calibrated with standards of 29-700 kDa; fractions on SDS-PAGE"}, "[6]": {"molecular_target": "His6-tagged Methanothermococcus thermolithotrophicus SufC (Methanothermococcus thermolithotrophicus)"}, "[7]": {"molecular_target": "His6-tagged Methanothermococcus thermolithotrophicus SufC (Methanothermococcus thermolithotrophicus)", "remark": "listed apart in the source"}},
  "data": [
    {"compound": "Nc1ncnc2c1ncn2[C@@H]1O[C@H](COP(=O)(O)OP(=O)(O)OP(=O)(O)O)[C@@H](O)[C@H]1O", "note": "[ATP]", "values": [
      {"measurement": "Km", "setting": "[1]", "result": "2600 ± 700", "unit": "µM"},
      {"measurement": "Km", "setting": "[2]", "result": "1900 ± 800", "unit": "µM"}
    ]},
    {"compound": "[S]12[Fe]3[S]4[Fe]1[S]1[Fe]2[S]3[Fe]41", "note": "[[4Fe-4S] cluster]", "values": [
      {"measurement": "Fe atoms per protomer", "setting": "[3]", "result": "1.6 ± 0.3", "unit": "Fe per protomer"}
    ]},
    {"compound": "His6-tagged Methanothermococcus thermolithotrophicus SufB (natural protein)", "values": [
      {"measurement": "stoichiometry N", "setting": "[4]", "result": 2}
    ]},
    {"compound": "His6-tagged Methanothermococcus thermolithotrophicus SufC (natural protein)", "values": [
      {"measurement": "stoichiometry N", "setting": "[5]", "result": 2}
    ]},
    {"compound": "untagged Methanothermococcus thermolithotrophicus SufB (natural protein)", "values": [
      {"measurement": "activation of apo-AcnB (Fe-S cluster transfer, aconitase activity) by the MTH SufB2C2 complex against MTH SufC alone", "setting": "[6]", "result": 2, "unit": "fold"},
      {"measurement": "ATPase activity (malachite green) of the MTH SufB2C2 complex against MTH SufC alone at 60°C", "setting": "[7]", "result": 7, "unit": "fold"}
    ]}
  ]
}
